Three substances from paper PMC11537708 can be followed below.

Broadly, the Kd is the constant that tells how readily two partners part at equilibrium. Read a low Kd as higher affinity. In general, koff refers to a measure of how fast the partners let go of each other. A lower koff goes with a long-lived complex. The term kon denotes the rate constant with which the complex forms.

Assay [1] has as its target human full-length CD45 extracellular domain (ECD) isoform RABC (human) (UniProt P08575). The assay can be described thus: SPR; GE Biacore T100; about 200 RU of human CD45 ECD, E3/49K immobilised on an SA-chip, reference channel with an unrelated protein; HBS-P+; twofold serial dilutions, 30 s association, 30 ul/min, 25 °C. In general terms: SPR reads the build-up and loss of mass on a sensor chip optically.

For assay [2] the target is unchanged. The assay can be described thus: cryo-EM structure; fully glycosylated human CD45 ECD bound to E3/49K, purified by size exclusion chromatography; 0.01% FOM; 3.8-Å nominal resolution map. Background: In gel filtration, larger molecules generally elute earlier.

UniProt P08575, sequence (P08575 26-577): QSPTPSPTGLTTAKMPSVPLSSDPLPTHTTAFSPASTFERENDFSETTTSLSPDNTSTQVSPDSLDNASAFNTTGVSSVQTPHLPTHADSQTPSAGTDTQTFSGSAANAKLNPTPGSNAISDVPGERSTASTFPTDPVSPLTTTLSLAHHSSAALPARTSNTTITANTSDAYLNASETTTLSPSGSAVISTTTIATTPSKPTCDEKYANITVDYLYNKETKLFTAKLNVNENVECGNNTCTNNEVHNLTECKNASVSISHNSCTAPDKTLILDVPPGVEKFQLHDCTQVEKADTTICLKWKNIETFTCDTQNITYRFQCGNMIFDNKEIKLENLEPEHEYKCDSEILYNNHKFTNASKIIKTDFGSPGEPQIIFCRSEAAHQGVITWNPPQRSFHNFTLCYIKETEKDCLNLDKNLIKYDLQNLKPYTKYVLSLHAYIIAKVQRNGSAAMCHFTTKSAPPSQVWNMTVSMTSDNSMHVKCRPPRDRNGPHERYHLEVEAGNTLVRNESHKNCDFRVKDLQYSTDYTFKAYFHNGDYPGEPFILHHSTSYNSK

Consider E3/49K R1 domain (domain or fragment), for which, in assay [1], the Kd was 74 nM.

In turn, E3/49K R2 domain (domain or fragment) had a dissociation constant (Kd) in assay [1] of 145 nM.

Regarding “adenoviral D19a strain E3/49K ECD (domain or fragment)”, in assay [2], the stoichiometry N (CD45 per E3/49K) came out at 2. In assay [1], this substance yielded a Kd of 0.3 nM, a koff of 0.000598 s⁻¹ and an association rate constant (kon) of 2.08e+06 M⁻¹ s⁻¹.
